Patent US20240209078A1 (Amgen, published 2024)
Where a chain is given by its changes, count along the chain named. Names may count otherwise. Read-outs that look alike come from different tables or passages of the source. One block for each binder: values may come before it.

Experiments:
[1] = target: T1, human CDH3 (Cadherin-3, P-Cadherin) (human, UniProt P22223 108-829); experiment: cell-based or functional assay
human MSLN (mesothelin) = human MSLN (mesothelin) (human, UniProt Q13421 37-598); experiment: cell-based or functional assay
[2] = target: T1, human CDH3 (Cadherin-3, P-Cadherin); experiment: cell-based or functional assay; remark: listed apart in the source
mouse MSLN protein = target: T2, mouse MSLN protein (mouse, UniProt Q61468 298-600); experiment: flow cytometry on transfected CHO cells
T2 construct: whole, on cells; also called full-length mouse MSLN
T2 sequence (looked up): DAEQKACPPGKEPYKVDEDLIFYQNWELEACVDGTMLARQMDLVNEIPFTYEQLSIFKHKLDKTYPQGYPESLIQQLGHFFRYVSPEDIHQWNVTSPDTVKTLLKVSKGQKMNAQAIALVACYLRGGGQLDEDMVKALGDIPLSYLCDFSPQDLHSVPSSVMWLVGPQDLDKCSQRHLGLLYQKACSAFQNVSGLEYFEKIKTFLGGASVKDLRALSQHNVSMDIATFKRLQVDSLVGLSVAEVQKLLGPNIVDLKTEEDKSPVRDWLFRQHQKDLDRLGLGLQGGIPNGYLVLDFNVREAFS

[3] = target: T1, human CDH3 (Cadherin-3, P-Cadherin); experiment: cell-based or functional assay; remark: listed apart in the source
human CDH3 [4] = target: T3, human CDH3 (human, UniProt P22223 108-829); experiment: cell-based or functional assay
human CDH3 [5] = target: T3, human CDH3; experiment: cell-based or functional assay; remark: listed apart in the source
cyno MSLN = target: T4, cyno MSLN (cyno); experiment: cell-based affinity, flow cytometry on target-transfected CHO cells, nonlinear regression (one site - specific binding), mean of three measurements
T4 construct: whole, on cells; On transfected CHO cells; also called cy MSLN
Protocol: (§1) Cell-based affinity of CDH3 MSLN dual targeting antigen-binding molecules was determined by nonlinear regression (one site—specific binding) analysis. CHO cells expressing human CDH3, cyno CDH3, human MSLN or cyno MSLN were incubated with decreasing concentrations of CDH3 MSLN dual targeting antigen-binding molecules (12.5 nM on CDH3 cell lines, 800 nM on MSLN cell lines, step 1:2, 11 steps) for 16 h at 4° ° C. Bound CDH3 MSLN dual targeting antigen-binding molecules were detected with Alexa Fluor 488-conjugated AffiniPure Fab Fragment Goat Anti-Human IgG (H+L). Fixed cells were stained with DRAQ5, Far-Red Fluorescent Live-Cell Permeant DNA Dye and signals were detected by fluorescence cytometry. Respective equilibrium dissociation constant (Kd) values were calculated with the one site—specific binding evaluation tool of the GraphPad Prism software. Mean Kd values and affinity gaps were calculated with Microsoft Excel.
(§2) Cell-based affinities of CDH3 MSLN dual targeting antigen-binding molecules on target-transfected CHO cells were determined by nonlinear regression (one site - specific binding) analysis. Mean Kd values were calculated from three independent measurements. Affinity gaps were determined by dividing the cyno Kd by the human Kd.

human CDH3 [6] = target: T3, human CDH3; experiment: as above
Protocol: as §1, §2

cyno CDH3 = target: T5, cyno CDH3 (cyno); experiment: as above
T5 construct: whole, on cells; On transfected CHO cells; also called cy CDH3
Protocol: as §1, §2

[7] = target: T1, human CDH3 (Cadherin-3, P-Cadherin); experiment: cell-based or functional assay; remark: listed apart in the source
[8] = target: T1, human CDH3 (Cadherin-3, P-Cadherin); experiment: cell-based or functional assay; remark: listed apart in the source
[9] = target: T1, human CDH3 (Cadherin-3, P-Cadherin); experiment: cell-based or functional assay; remark: listed apart in the source
[10] = target: T1, human CDH3 (Cadherin-3, P-Cadherin); experiment: cell-based or functional assay; remark: listed apart in the source
[11] = target: T1, human CDH3 (Cadherin-3, P-Cadherin); experiment: cell-based or functional assay; remark: listed apart in the source

B1: MS 15-B12 CC × 6H10.09 × (G4) × heFc (A) * heFc (B) × (G4) × CH3 15-E11 CC × 6H10.09 (bispecific antibody)
chain 1: not shown
chain 2: DKTHTCPPCPAPELLGGPSVFLFPPKPKDTLMISRTPEVTCVVVDVSHEDPEVKFNWYVDGVEVHNAKTKPCEEQYGSTYRCVSVLTVLHQDWLNGKEYKCKVSNKALPAPIEKTISKAKGQPREPQVYTLPPSRKEMTKNQVSLTCLVKGFYPSDIAVEWESNGQPENNYKTTPPVLKSDGSFFLYSKLTVDKSRWQQGNVFSCSVMHEALHNHYTQKSLSLSPGKGGGGQVQLVQSGAEVKKPGASVKVSCKASGYTFTNYWMNWVRQAPGQCLEWMGNIAYGVKGTNYNQKFQGRVTMTVDTSSSTAYMELSRLRSDDTAVYYCATRYFYVMDYWGQGTLVTVSSGGGGSGGGGSGGGGSDIQMTQSPSSLSASVGDRVTITCRASQDISNYLNWYQQKPGKVPKLLIYYTSRLHSGVPSRFSGSGSGTDFTLTISSLQPEDVATYYCVQYAQFPLTFGCGTKVEIKSGGGGSEVQLVESGGGLVQPGGSLKLSCAASGFTFNKYAMNWVRQAPGKGMEWVARIRSKYNNYATYYADAVKDRFTISRDDSKNTLYLQMNNLKTEDTAVYYCVRAGNFGSSYISYFAYWGQGTLVTVSSGGGGSGGGGSGGGGSQTVVTQEPSLTVSPGGTVTITCGSSTGAVTSGNYPNWIQKKPGQAPRGLIGGTKFLAPGTPARFSGSLEGGKAALTLSGVQPEDEAEYYCVLYYSNRWVFGSGTKLTVL
cytotoxicity EC50, GSU KO MSLN cells [1]: 533 pM
cytotoxicity EC50, GSU KO CDH3 cells (human MSLN (mesothelin)): 391 pM

binding result (mouse MSLN protein): no binding (tested: 5 µg/mL)
B2: CH3 15-E11 VAG CC×I2L×G4×scFc×MS 15-B12 CC×I2L clipopt ID (SEQ ID NO 434) (bispecific antibody)
chain: QVQLVQSGAEVKKPGASVKVSCKASGYTFTNYWMNWVRQAPGQCLEWMGNIAYGVAGTNYNQKFQGRVTMTVDTSSSTAYMELSRLRSDDTAVYYCATRYFYVMDYWGQGTLVTVSSGGGGQGGGGQGGGGQDIQMTQSPSSLSASVGDRVTITCRASQDISNYLNWYQQKPGKVPKLLIYYTSRLHSGVPSRFSGSGSGTDFTLTISSLQPEDVATYYCVQYAQFPLTFGCGTKVEIKSGGGGQEVQLVESGGGLVQPGGSLKLSCAASGFTFNKYAMNWVRQAPGKGMEWVARIRSKYNNYATYYADAVKDRFTISRDDSKNTLYLQMNNLKTEDTAVYYCVRAGNFGSSYISYFAYWGQGTLVTVSSGGGGQGGGGQGGGGQQTVVTQEPSLTVSPGGTVTITCGSSTGAVTSGNYPNWIQKKPGQAPRGLIGGTKFLAPGTPARFSGSLEGGKAALTLSGVQPEDEAEYYCVLYYSNRWVFGSGTKLTVLGGGGCPPCPAPELLGGPSVFLFPPKPKDTLMISRTPEVTCVVVDVSHEEPEVKFNWYVDGVEVHNAKTKPCEEQYGSTYRCVSVLTVLHQDWLNGKEYKCKVSNKALPAPIEKTISKAKGQPREPQVYTLPPSREEMTKNQVSLTCLVKGFYPSDIAVEWESNGQPENNYKTTPPVLDSDGSFFLYSKLTVDKSRWQQGNVFSCSVMHEALHNHYTQKSLSLSPGKGGGGQGGGGQGGGGQGGGGQGGGGQGGGGQCPPCPAPELLGGPSVFLFPPKPKDTLMISRTPEVTCVVVDVSHEEPEVKFNWYVDGVEVHNAKTKPCEEQYGSTYRCVSVLTVLHQDWLNGKEYKCKVSNKALPAPIEKTISKAKGQPREPQVYTLPPSREEMTKNQVSLTCLVKGFYPSDIAVEWESNGQPENNYKTTPPVLDSDGSFFLYSKLTVDKSRWQQGNVFSCSVMHEALHNHYTQKSLSLSPGKGGGGQVQLQESGPGLVKPSETLSLTCTVSGGSISSSSYFWGWIRQPPGKCLEWIGNIYYSGSSNYNPSLKSRVTISVDTSKNQFSLKLSSVTAADTAVYYCARLPRGDRDAFDIWGQGTMVTVSSGGGGQGGGGQGGGGQDIVMTQSPSSLSASVGDRVTITCRASQGISNYLAWYQQKPGKVPKLLIYAASTLQSGVPSRFSGSGSGTDFTLTISSLQPEDFATYYCQQSYSTPFTFGCGTKVEIKSGGGGQEVQLVESGGGLVQPGGSLKLSCAASGFTFNKYAMNWVRQAPGKGMEWVARIRSKYNNYATYYADAVKDRFTISRDDSKNTLYLQMNNLKTEDTAVYYCVRAGNFGSSYISYFAYWGQGTLVTVSSGGGGQGGGGQGGGGQQTVVTQEPSLTVSPGGTVTITCGSSTGAVTSGNYPNWIQKKPGQAPRGLIGGTKFLAPGTPARFSGSLEGGKAALTLSGVQPEDEAEYYCVLYYSNRWVFGSGTKLTVL
notes: single-chain multitargeting CDH3 x CD3 - scFc - MSLN x CD3 engager; also called K3T
cytotoxicity EC50, HCT 116 KO MSLN cells [2]: 1.5 pM
cytotoxicity EC50, GSU KO MSLN cells [3]: 245 pM

fold gap of column 2 (HCT 116 KO MSLN by Table 46) against double positive cells (human CDH3 [4]): 122 fold
Kd (cyno MSLN): 51400 pM
Kd (human CDH3 [6]): 160 pM
Kd (cyno CDH3): 190 pM
B3: CH3 15-E11 CC × I2L × G4 × scFc × G4 × MS 15-B12 CC × I2L_GQ (bispecific antibody)
chain: B2 chain with A56K
notes: Single chain: CDH3 scFv - CD3 scFv (I2L) - scFc - MSLN scFv - CD3 scFv (I2L)
EC50 (cytotoxicity) on double positive cells; column head printed 'EC50 CHO hu CDH3 (+) & MSLN (+)'; value is that of HCT 116 wt in Table 46 (human CDH3 [4]): 0.071 pM
EC50 (cytotoxicity); column head printed 'EC50 CHO hu MSLN (+)', table title HCT 116; value is that of HCT 116 KO MSLN in Table 46 (human CDH3 [4]): 8.7 pM
EC50 on HCT 116 KO MSLN (cytotoxicity; cells CDH3+, MSLN-) (human CDH3 [5]): 8.7 pM
EC50 on HCT 116 wt (cytotoxicity; cells CDH3+, MSLN+) (human CDH3 [5]): 0.07 pM

Kd (cyno MSLN): 50300 pM
Kd (human CDH3 [6]): 510 pM
Kd (cyno CDH3): 570 pM
B4: CH3 15-E11_1_VAG_CC × I2L × G4 × scFc × G4 × MS 15-B12 CC × I2L clipopt_DI (bispecific antibody)
chain: B2 chain
notes: Single chain

binding result (mouse MSLN protein): no binding (tested: 5 µg/mL)
B5: CH3 15-E11 CC×I2L×G4×scFc×G4×MS 15-B12 CC×I2L_GQ (SEQ ID NO 251) (bispecific antibody)
chain: B2 chain with A56K
notes: single-chain multitargeting engager; also called F5Q
cytotoxicity EC50, HCT 116 KO MSLN cells [7]: 8.7 pM
cytotoxicity EC50, GSU KO MSLN cells [8]: 3240 pM
cytotoxicity EC50, HCT 116 KO MSLN cells [9]: 8.7 pM
cytotoxicity EC50, GSU KO MSLN cells [10]: 3240 pM
cytotoxicity EC50, E:T ratio 1:1, GSU KO MSLN cells [11]: 322 pM
cytotoxicity EC50, E:T ratio 1:2, GSU KO MSLN cells [11]: 341 pM
cytotoxicity EC50, E:T ratio 10:1, GSU KO MSLN cells [11]: 98 pM
